B1: HEEH_KT_rd6_3632 (parent)
chain: DAEELIELVERALKEGREIILLGVRITSEEAGKWFIEWIRRFL

Variants of: B1
Test: folding stability dG (cDNA display proteolysis); higher = more stable
Details: PBS, room temperature

Folding stability dG [kcal/mol] of substitutions, site by site:
V24: Y 3.55; P 3.03; W 3.76; H 3.42; K 3.05; A 3.15; G 3.22; R 3; N 2.99; T 3.25; F 3.9; E 2.9; S 2.86; I 3.98; L 3.43; D 2.71; Q 3.13; M 3.43
I26: R 3.38; Y 3.34; N 3.21; V 3.29; H 3.09; E 3.33; D 2.97; K 3.26; C 4.36; T 3.49; Q 3.21; S 3.07; P 3.18; W 3.39; M 3.32; L 3.37; F 3.44; G 2.89; A 3.34
W34: N 3.48; V 3.35; Q 3.64; T 3.45; L 3.72; H 3.54; S 3.43; Y 3.43; K 3.81; G 3.11; R 3.98; P 2.66; A 4.01; E 3.41; I 3.6; F 3.42; D 3.39; C 3.78; M 3.61
E18: S 3.83; P 3.64; K 3.55; Q 3.74; N 3.69; A 3.74; D 3.44; Y 3.78; W 3.78; I 4.02; T 3.94; F 3.87; V 3.91; R 3.79; M 3.66; G 3.58; H 3.85; L 3.83
E29: H 3.67; F 3.88; D 3.67; A 3.89; I 3.94; N 3.81; L 3.93; G 3.63; S 3.71; K 3.82; P 4.06; Y 3.96; R 3.71; Q 3.97; V 3.79; W 4.1; T 3.83; M 3.92
F35: P 2.34; G 2.63; K 3.08; Q 2.85; M 3.43; N 2.53; R 2.98; S 2.86; A 3.03; E 2.63; I 3.85; L 3.66; D 2.6; H 2.85
L21: V 3.9; R 3.14; K 2.98; M 3.36; F 3.49; D 2.71; I 3.83; A 3.37; P 2.6; S 3.12; H 2.92; G 2.83; E 3.06; W 3.33; T 2.78; Q 2.93; Y 3.28; N 3.01
R25: D 3.21; S 3.51; K 3.57; L 3.81; P 3.14; A 3.68; G 3.32; H 3.72; W 3.77; Y 3.65; T 3.56; F 3.79; V 3.64; E 3.28; N 3.44; M 3.66; I 3.67; Q 3.41
R17: Y 3.84; W 3.75; S 3.27; V 3.79; T 3.45; Q 3.27; P 3.36
E30: L 3.91; R 3.84; Y 3.75; D 3.63; W 4.01; F 3.76; V 3.94; S 3.69; Q 3.77; P 3.54; N 3.56; T 3.57; K 3.65; H 3.59; A 4; G 3.64; M 3.86; I 3.75
I20: Q 3.12; H 3.17; K 3.01; T 3.73; L 3.35; N 3.08; G 2.71; R 3.13; E 3.32; W 3.4; M 3.26; D 2.84; V 3.66; F 3.32; P 2.65; S 3.18; A 2.94; Y 3.27
S28: R 3.43; G 3.83; C 3.83; F 3.62; H 3.36; K 3.17; W 3.91; Q 3.13; I 3.46; A 3.52; M 3.33; P 3.5; D 3.63; N 3.78; E 3.23; Y 3.47; V 3.57; T 3.71; L 3.73
I19: K 2.94; H 2.98; Q 2.91; A 3.18; W 3.44; V 3.4; D 2.66; M 3.23; R 2.81; N 2.86; L 3.56; S 2.75; G 2.96; P 2.74; C 4.54; T 2.97; Y 3.23; F 3.43; E 2.63
G23: I 3.87; L 4.02; F 3.93; D 3.37; Q 3.61; N 3.31; K 3.55; A 3.67; S 3.56; R 3.54; T 3.63; E 3.41; P 3.28; W 4.11; C 3.82; H 3.6; Y 3.91; V 3.88; M 3.91
T27: K 3.59; G 3.67; H 3.79; D 4.05; F 4.03; P 3.18; I 3.9; A 3.94; E 3.44; V 3.91; S 3.67; Y 3.74; Q 3.44; L 3.98; W 3.95; N 3.99; M 3.88; R 3.52
K33: M 3.57; A 3.77; R 4.02; I 3.56; E 3.43; Q 3.62; W 3.7; P 3.2; D 3.38; V 3.55; F 3.48; Y 3.61; T 3.56; N 3.52; H 3.51; L 3.63; S 3.39; C 3.99; G 3.34
L22: I 3.56; H 3.12; M 3.53; S 3.1; A 3.2; P 2.68; W 4.08; Q 3.13; G 3.01; C 4.73; V 3.3; K 3.05; N 3.05; E 2.7; Y 3.22; F 3.63; T 3.08; D 2.66; R 3.31
G32: A 4.05; F 4.17; D 3.14; S 3.39; M 4.07; R 3.72; H 3.44; E 3.22; W 4.07; V 3.86; P 3.39; K 3.68; L 4.17; Y 3.85; N 3.38; Q 3.43; T 3.64; I 4.12
A31: F 3.83; G 3.71; N 3.49; H 3.68; S 3.65; W 4.01; Q 3.99; P 3.15; R 3.61; L 4.06; M 4.08; T 3.86; Y 3.62; K 3.6; I 4.34; D 3.88; E 4.2; V 4.27

From the MegaScale stability set (Tsuboyama et al. 2023)
